Laboratory results reported in patent US9618524B2, “Method, composition, isolation and identification of a plaque particle and related biomarker” (Plaxgen Inc., priority 2012, dated 2017).

Legend:
Test in all cases: Mass spectroscopy proteomics, semi-quantitative binding affinity of serum proteins (plaqueproteome, Table 2)
Conditions in all cases: higher number = stronger affinity
[1] = biological target: T1, alpha-synuclein plaque particles (Homo sapiens, UniProt P37840)
T1 construct: 140 amino acids polypeptide
Method in brief: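 AD-subject plasma or serum (800 μL of 50%) mixed with 30 μg preformed alpha-synuclein aggregates for 1 h at 37 °C; Thioflavin S-positive particles isolated by flow sorting. After reduction, acrylamide alkylation and overnight tryptic digestion, serum proteins identified by MS/MS with Sequest and Scaffold.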

Tau plaque particles = test system: Tau plaque particles; set-up: species or system human
Method in brief: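 Serum or plasma proteins captured on Thioflavin S-labelled Tau plaque particles (Tau-74, Tau-275 oligomers preformed in PBS at 37° C for 2 h; 1 h co-incubation at 37° C) were isolated by FACS sorting, then tryptically digested and identified by MS/MS (Sequest, human UniProt, strict trypsin).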

[2] = test system: High Density cholesterol (Chl Large) plaque particles; set-up: species or system human
Method in brief: (§1)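 Serum or plasma from atherosclerotic subjects, as 50% serum, was incubated with 30 μg cholesterol aggregates for 1 h at 37 °C. High- and low-density particles were then flow-sorted, trypsin-digested and analysed by MS/MS. Proteins were identified by Sequest search against human UniProt and validated with Protein Prophet.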

[3] = test system: Low density cholesterol (Chl small) plaque particles; set-up: species or system human
Method in brief: as §1

[4] = biological target: T2, Abeta-42 plaque particles (Homo sapiens, UniProt P05067)
T2 construct: Abeta 1-42
Method in brief: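 AD patient serum or plasma (50% in PBS) was incubated with Abeta-42 aggregates (30 μg) for 1 h at 37 °C, then stained with Thioflavin S for 30 min. Labeled particles were FACS-sorted, trypsin/Lys-C digested overnight and analyzed by MS/MS. Sequest searched human UniProt; Scaffold/Protein Prophet validated the identifications.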

B1: Ig mu chain C region (protein)
chain: GSASAPTLFPLVSCENSPSDTSSVAVGCLAQDFLPDSITFSWKYKNNSDISSTRGFPSVLRGGKYAATSQVLLPSKDVMQGTDEHVVCKVQHPNGNKEKNVPLPVIAELPPKVSVFVPPRDGFFGNPRKSKLICQATGFSPRQIQVSWLREGKQVGSGVTTDQVQAEAKESGPTTYKVTSTLTIKESDWLGQSMFTCRVDHRGLTFQQNASSMCVPDQDTAIRVFAIPPSFASIFLTKSTKLTCLVTDLTTYDSVTISWTRQNGEAVKTHTNISESHPNATFSAVGEASICEDDWNSGERFTCTVTHTDLPSPLKQTISRPKGVALHRPDVYLLPPAREQLNLRESATITCLVTGFSPADVFVQWMQRGQPLSPEKYVTSAPMPEPQAPGRYFAHSILTVSEEEWNTGETYTCVVAHEALPNRVTERTVDKSTGKPTLYNVSLVMSDTAGTCY
In the case of B1, the “Semi-quantitative analysis of proteins binding to different plaque particles: Synuclein” value [1] is reported as 8, the “Semi-quantitative analysis of proteins binding to different plaque particles: Tau” value (Tau plaque particles) is reported as 10 and the “Semi-quantitative analysis of proteins binding to different plaque particles: Chl Large” value [2] is reported as 10. The “Semi-quantitative analysis of proteins binding to different plaque particles: Chl small” value [3] was 10 and the “Semi-quantitative analysis of proteins binding to different plaque particles: Abeta-42” value [4] was 5.

B2: Inter-alpha-trypsin inhibitor heavy chain H2 (protein)
chain: SLPGESEEMMEEVDQVTLYSYKVQSTITSRMATTMIQSKVVNNSPQPQNVVFDVQIPKGAFISNFSMTVDGKTFRSSIKEKTVGRALYAQARAKGKTAGLVRSSALDMENFRTEVNVLPGAKVQFELHYQEVKWRKLGSYEHRIYLQPGRLAKHLEVDVWVIEPQGLRFLHVPDTFEGHFDGVPVISKGQQKAHVSFKPTVAQQRICPNCRETAVDGELVVLYDVKREEKAGELEVFNGYFVHFFAPDNLDPIPKNILFVIDVSGSMWGVKMKQTVEAMKTILDDLRAEDHFSVIDFNQNIRTWRNDLISATKTQVADAKRYIEKIQPSGGTNINEALLRAIFILNEANNLGLLDPNSVSLIILVSDGDPTVGELKLSKIQKNVKENIQDNISLFSLGMGFDVDYDFLKRLSNENHGIAQRIYGNQDTSSQLKKFYNQVSTPLLRNVQFNYPHTSVTDVTQNNFHNYFGGSEIVVAGKFDPAKLDQIESVITATSANTQLVLETLAQMDDLQDFLSKDKHADPDFTRKLWAYLTINQLLAERSLAPTAAAKRRITRSILQMSLDHHIVTPLTSLVIENEAGDERMLADAPPQDPSCCSGALYYGSKVVPDSTPSWANPSPTPVISMLAQGSQVLESTPPPHVMRVEND
B2 was tested, and the “Semi-quantitative analysis of proteins binding to different plaque particles: Synuclein” value [1] was 13, the “Semi-quantitative analysis of proteins binding to different plaque particles: Tau” value (Tau plaque particles) was 14 and the “Semi-quantitative analysis of proteins binding to different plaque particles: Chl Large” value [2] was 10. For the same molecule, the “Semi-quantitative analysis of proteins binding to different plaque particles: Chl small” value [3] was 12 and the “Semi-quantitative analysis of proteins binding to different plaque particles: Abeta-42” value [4] was 9.

B3: Cluster of Ig mu chain C region (protein, UniProt P01871 1-474, looked up)
Immunoglobulin heavy constant …: GSASAPTLFPLVSCENSPSDTSSVAVGCLAQDFLPDSITFSWKYKNNSDISSTRGFPSVLRGGKYAATSQVLLPSKDVMQGTDEHVVCKVQHPNGNKEKNVPLPVIAELPPKVSVFVPPRDGFFGNPRKSKLICQATGFSPRQIQVSWLREGKQVGSGVTTDQVQAEAKESGPTTYKVTSTLTIKESDWLGQSMFTCRVDHRGLTFQQNASSMCVPDQDTAIRVFAIPPSFASIFLTKSTKLTCLVTDLTTYDSVTISWTRQNGEAVKTHTNISESHPNATFSAVGEASICEDDWNSGERFTCTVTHTDLPSPLKQTISRPKGVALHRPDVYLLPPAREQLNLRESATITCLVTGFSPADVFVQWMQRGQPLSPEKYVTSAPMPEPQAPGRYFAHSILTVSEEEWNTGETYTCVVAHEALPNRVTERTVDKSTEGEVSADEEGFENLWATASTFIVLFLLSLFYSTTVTLFKVK
With B3 the “Semi-quantitative analysis of proteins binding to different plaque particles: Synuclein” value [1] was 9, the “Semi-quantitative analysis of proteins binding to different plaque particles: Tau” value (Tau plaque particles) was 11 and the “Semi-quantitative analysis of proteins binding to different plaque particles: Chl Large” value [2] was 10. The “Semi-quantitative analysis of proteins binding to different plaque particles: Chl small” value [3] was 10 and the “Semi-quantitative analysis of proteins binding to different plaque particles: Abeta-42” value [4] was 5.
